Measured values published in the Human Domainome abundance scans (Beltran et al. 2025).
± gives the uncertainty stated by the source.

B1: Homeobox protein cut-like 1, residues 941 to 1008; numbered along this chain, P39880 (parent)
chain: QEVDTIELTRQVKEKLAKNGICQRIFGEKVLGLSQGSVSDMLSRPKPWSKLTQKGREPFIRMQLWLNG

Variants of: B1
Assay: abundance fitness (aPCA) (normalised: wild type 0, dead -1); higher = more abundant; growth selection in yeast, the domain comes from the species named
Conditions: Homo sapiens

| Variant | abundance fitness |
| --- | --- |
| QEVDTIELTEQVKEKLAKNGICQRIFGEKVLGLSQGSVSDMLSRPKPWSKLTQKGREPFIRMQLWLNG | -0.056 ± 0.088 |
| QEVDTIELTRQVKEKLAKNGICNRIFGEKVLGLSQGSVSDMLSRPKPWSKLTQKGREPFIRMQLWLNG | -0.133 ± 0.11 |
| QEVDTIELTRQVKEKLAKNGICQRIFGEKVLGLSQGSVSDMLSRPKPWSKLTQKGREPFIRMQLYLNG | -0.309 ± 0.11 |
| QEVDTIELTRQVKEKLAKNGICQRIFGEKVLGLSQGSVSDMLSRPKPWSKLTDKGREPFIRMQLWLNG | 0.032 ± 0.081 |
| QEVDTIELTRQVKEKLAKNGICQRIFGEKVLGLSQGVVSDMLSRPKPWSKLTQKGREPFIRMQLWLNG | -0.039 ± 0.063 |
| QEVDTIELTRQVKEKLAKNGICQDIFGEKVLGLSQGSVSDMLSRPKPWSKLTQKGREPFIRMQLWLNG | -0.074 ± 0.11 |
| QEVDTIELTRQVKEKLAKNGICQFIFGEKVLGLSQGSVSDMLSRPKPWSKLTQKGREPFIRMQLWLNG | -0.362 ± 0.097 |
| QEVDTIELTRQVKEKLAKNGICQYIFGEKVLGLSQGSVSDMLSRPKPWSKLTQKGREPFIRMQLWLNG | -0.101 ± 0.1 |
| QEVDTIELTRQVKEKLAKNGICQKIFGEKVLGLSQGSVSDMLSRPKPWSKLTQKGREPFIRMQLWLNG | -0.07 ± 0.09 |
| QEVDTIELTRQVKEKLAKNGICQRIFGEKVLGLSQGSVSDMLSRPKPWSKLTQKGREPSIRMQLWLNG | -0.995 ± 0.1 |
| QEVDTIELTRQVKEKLAKNGICQRIMGEKVLGLSQGSVSDMLSRPKPWSKLTQKGREPFIRMQLWLNG | -0.459 ± 0.071 |
| QEVDTIEVTRQVKEKLAKNGICQRIFGEKVLGLSQGSVSDMLSRPKPWSKLTQKGREPFIRMQLWLNG | 0.038 ± 0.064 |
| QEVDTIEFTRQVKEKLAKNGICQRIFGEKVLGLSQGSVSDMLSRPKPWSKLTQKGREPFIRMQLWLNG | -0.152 ± 0.067 |
| QEVDTIEKTRQVKEKLAKNGICQRIFGEKVLGLSQGSVSDMLSRPKPWSKLTQKGREPFIRMQLWLNG | 0.04 ± 0.078 |
| QEVDTIELTRQVKEKLAKNGICQRIFGEKVLGLSQGSVSDMLSRPKPWSKLTQKGREPFIRMQIWLNG | -0.195 ± 0.12 |
| QEVDTIELTRQVKEKLAKNGICQRIFGEKVLGLSQGSVSDMLSRPKPWSKLTQKGREPFIRMQVWLNG | -0.135 ± 0.049 |
| QEVDTIELTRQVKEKLAKNGICQRIFGEKVLGLSQGSVSDMLSRPKPWSKLTQKGREPFIRMQLWLRG | -0.016 ± 0.06 |
| QEVDTIELTRQVKEKLAKNGICQRIFGEKVLGLSQGSVSDMLSRPKPWSKLQQKGREPFIRMQLWLNG | -0.22 ± 0.078 |
| QEVDTIELTRQVKEKLAKNGICQRIFGEKVLGLSQGSVSDMLSRPKPWSKLMQKGREPFIRMQLWLNG | -0.157 ± 0.082 |
| QEVDTIELTRQVKEKLAKNGICQRIFGEKVLGLSQGSVSDMLSRPKPWSKLTQKGFEPFIRMQLWLNG | -0.659 ± 0.17 |
| QEVDTIELTRQVKEKLAKNGICQRIFGVKVLGLSQGSVSDMLSRPKPWSKLTQKGREPFIRMQLWLNG | -0.214 ± 0.056 |
| QEVDTIELTRQVKEKLAKNGICQRIFGLKVLGLSQGSVSDMLSRPKPWSKLTQKGREPFIRMQLWLNG | -0.113 ± 0.045 |
| QEVDTIELTRQVKEKLAKNGICQRIFGEKVLGLSQGSVSDMLSRPKPWSKLTQPGREPFIRMQLWLNG | -0.439 ± 0.077 |
| QEVDTIELTRQVKEKLAKNGICQRIFGEKVLGLSQGSVSDMLSRPKPWSKLTQDGREPFIRMQLWLNG | -0.098 ± 0.11 |
| QEVDTIELTRQVKEKLAKNGICQRIFGEKVLGLSQGSVSDMLSRPKPWSKLTQKGREFFIRMQLWLNG | 0.006 ± 0.079 |
| QEVDTIELTRQVKEKLAKNGICQRIFGEKVLGLSQGSVSDMLSRPKPWSKLTQKGRERFIRMQLWLNG | -0.049 ± 0.054 |
| QEVDTIELTRQVKEKLAKNGICQRIFGEKVLMLSQGSVSDMLSRPKPWSKLTQKGREPFIRMQLWLNG | -0.226 ± 0.088 |

| Variant | abundance fitness |
| --- | --- |
| QEVDTIELTRQVKEKLAKNGICQRWFGEKVLGLSQGSVSDMLSRPKPWSKLTQKGREPFIRMQLWLNG | 0.021 ± 0.068 |
| QEVDTIELTRQVKEKLAKNGICQRIFGEKVLGLSQGSVSDMESRPKPWSKLTQKGREPFIRMQLWLNG | -0.281 ± 0.067 |
| QEVDTIELTRQVKEKLAKNGICQRIFGEKVLGLSQGSVSDMLSRPKPWSKLTQKGREPFIRMQLWCNG | -0.499 ± 0.13 |
| QEVDTIELTRQVKEKLAKNGICQRIFGEKVLGLSPGSVSDMLSRPKPWSKLTQKGREPFIRMQLWLNG | 0.121 ± 0.068 |
| QEVDTIELTRQVKEKLAKNGICQRIFGEKVLGLSQGSVSDMLSRPKKWSKLTQKGREPFIRMQLWLNG | -0.029 ± 0.071 |
| QEVDTIELTRQVKEILAKNGICQRIFGEKVLGLSQGSVSDMLSRPKPWSKLTQKGREPFIRMQLWLNG | -0.085 ± 0.14 |
| QEVDTIELTRQVKEALAKNGICQRIFGEKVLGLSQGSVSDMLSRPKPWSKLTQKGREPFIRMQLWLNG | -0.147 ± 0.11 |
| QEVDTIELTRQVKEKLAKNGICQRIFGEKVLGLSQGSVSDMLSRPKPWSKLTQKGREPFIRDQLWLNG | -0.86 ± 0.11 |
| QEVDTIELTRQVKEKLAKNGICQRIFGEKVLGLSQGSVSDMLSRPKPWSKLTQKGREPFIRIQLWLNG | -0.346 ± 0.12 |
| QEVDTIELTRQVKEKLAKNGICQRIFGEKVLGLSQGSVSDMLSRPKPWSKLTQKGREPFIRCQLWLNG | -0.226 ± 0.081 |
| QEVDTIELTRQVKEKLAKNGICQRIFGEKVNGLSQGSVSDMLSRPKPWSKLTQKGREPFIRMQLWLNG | -0.319 ± 0.098 |
| QEVDTIELTRQVKEKVAKNGICQRIFGEKVLGLSQGSVSDMLSRPKPWSKLTQKGREPFIRMQLWLNG | -0.162 ± 0.062 |
| QEVDTIELTRQVKEKLAKNGICQRIFGEKVLGLSQGSVSDMLSRPKPWSKLTQKGREPFIRMQLWLND | 0.013 ± 0.095 |
| QEVDTIELTRQVKEKLAKNGICQRIFGEKVLGLSQGSVSDMLSRPKPGSKLTQKGREPFIRMQLWLNG | -0.919 ± 0.084 |
| QEVDTIELTRQVKEKLAKNGICQRIFGEKVLGLSQGSVSDMLSRPKPESKLTQKGREPFIRMQLWLNG | -0.774 ± 0.12 |
| QEVDYIELTRQVKEKLAKNGICQRIFGEKVLGLSQGSVSDMLSRPKPWSKLTQKGREPFIRMQLWLNG | -0.192 ± 0.12 |
| QEVDTIELTRQVNEKLAKNGICQRIFGEKVLGLSQGSVSDMLSRPKPWSKLTQKGREPFIRMQLWLNG | -0.132 ± 0.097 |
| QEVDTHELTRQVKEKLAKNGICQRIFGEKVLGLSQGSVSDMLSRPKPWSKLTQKGREPFIRMQLWLNG | -0.005 ± 0.095 |
| QEVDTFELTRQVKEKLAKNGICQRIFGEKVLGLSQGSVSDMLSRPKPWSKLTQKGREPFIRMQLWLNG | -0.081 ± 0.073 |
| QEVDTCELTRQVKEKLAKNGICQRIFGEKVLGLSQGSVSDMLSRPKPWSKLTQKGREPFIRMQLWLNG | -0.091 ± 0.08 |
| QEVNTIELTRQVKEKLAKNGICQRIFGEKVLGLSQGSVSDMLSRPKPWSKLTQKGREPFIRMQLWLNG | -0.097 ± 0.067 |
| QEVDTIELTRQVKEKLAKNGICQRIFGEKVLGLSQGSVSDMLSRPKPWSKLTQKGREPFIMMQLWLNG | -0.308 ± 0.063 |
| QEVDTIELTRQVKEKLNKNGICQRIFGEKVLGLSQGSVSDMLSRPKPWSKLTQKGREPFIRMQLWLNG | -0.123 ± 0.17 |
| QEVDTIELTRQVKEKLMKNGICQRIFGEKVLGLSQGSVSDMLSRPKPWSKLTQKGREPFIRMQLWLNG | -0.171 ± 0.075 |
| QEVDTIELTRQVKEKLAKNGICQRIFGEKVLGLSQGSRSDMLSRPKPWSKLTQKGREPFIRMQLWLNG | -0.22 ± 0.044 |
| QEVDTIELTRQVKEKLAKNGICQRIFGEKVLGLSQMSVSDMLSRPKPWSKLTQKGREPFIRMQLWLNG | -0.058 ± 0.069 |
| QEVDTIELTRQVKEKLAKNGICQRIFGEKVLGLSQGSVSDMLTRPKPWSKLTQKGREPFIRMQLWLNG | -0.01 ± 0.096 |

| Variant | abundance fitness |
| --- | --- |
| QEVDTIELTRQVKEKLAKNGICQRIFGEKVLGPSQGSVSDMLSRPKPWSKLTQKGREPFIRMQLWLNG | -0.49 ± 0.082 |
| QEVDTIELTRPVKEKLAKNGICQRIFGEKVLGLSQGSVSDMLSRPKPWSKLTQKGREPFIRMQLWLNG | -0.092 ± 0.077 |
| QCVDTIELTRQVKEKLAKNGICQRIFGEKVLGLSQGSVSDMLSRPKPWSKLTQKGREPFIRMQLWLNG | -0.375 ± 0.033 |
| QLVDTIELTRQVKEKLAKNGICQRIFGEKVLGLSQGSVSDMLSRPKPWSKLTQKGREPFIRMQLWLNG | -0.376 ± 0.026 |
| QPVDTIELTRQVKEKLAKNGICQRIFGEKVLGLSQGSVSDMLSRPKPWSKLTQKGREPFIRMQLWLNG | -0.206 ± 0.028 |
| QRVDTIELTRQVKEKLAKNGICQRIFGEKVLGLSQGSVSDMLSRPKPWSKLTQKGREPFIRMQLWLNG | -0.157 ± 0.027 |
| QEVDTIELGRQVKEKLAKNGICQRIFGEKVLGLSQGSVSDMLSRPKPWSKLTQKGREPFIRMQLWLNG | -0.047 ± 0.063 |
| QEVDTIELTRQVKEKLAKNGICQRIFGEKVLGLSQGSVSDMLSRPKPWSKLTQKGRRPFIRMQLWLNG | -0.223 ± 0.054 |
| QEVDTIELTRQVKEKLAKNGICQRIFGEKVLGLSQGSVSDMLSRPKPWSKLTQKGRMPFIRMQLWLNG | -0.203 ± 0.071 |
| QEVDTIELTRQVKEKLAKNGICQRIFGEKVLGLSQGSVSDMLSRPKPWSKATQKGREPFIRMQLWLNG | -0.723 ± 0.078 |
| QEVDTIELTRQVKEKLAKNGICQRIFGEKVLGLSQGSVSDMLSRPKPWSKETQKGREPFIRMQLWLNG | -0.929 ± 0.093 |
| QEVDTIELTRQVKEKLAKNGICQRIFGEKVLGLEQGSVSDMLSRPKPWSKLTQKGREPFIRMQLWLNG | -0.004 ± 0.072 |
| QEVDTIELTRQVKEKLAKNGICQRIFGEKVLGLPQGSVSDMLSRPKPWSKLTQKGREPFIRMQLWLNG | 0.101 ± 0.069 |
| QEVDTIELTRQVKEKLAKNGICQRIFGEKVLGLSQGSVVDMLSRPKPWSKLTQKGREPFIRMQLWLNG | -0.073 ± 0.052 |
| QEVDTIELTRQVKEKLAKNGICQRIFGEWVLGLSQGSVSDMLSRPKPWSKLTQKGREPFIRMQLWLNG | -0.273 ± 0.072 |
| QEVDTIELTRQVKEKLAKNGICQRIFGEDVLGLSQGSVSDMLSRPKPWSKLTQKGREPFIRMQLWLNG | -0.202 ± 0.096 |
| QEVDTIELTRQVKEKLAKNGICQRIFGEKVLGLSQGSVSDMLSREKPWSKLTQKGREPFIRMQLWLNG | -0.526 ± 0.13 |
| QEVDTIELTRQVKEKLAKNGICQRIFGEKVLGLSQGSVSDMLSRMKPWSKLTQKGREPFIRMQLWLNG | -0.269 ± 0.076 |
| QEVDTIELTRQVKEKLAKNGICQRIFGEKVLGLSQGSVSFMLSRPKPWSKLTQKGREPFIRMQLWLNG | -0.251 ± 0.071 |
| QEVDTIELTRQVKEKLAKNGICQRIFGEKVLGLSQGSVSDMLSRPKPWSKLTQKNREPFIRMQLWLNG | -0.792 ± 0.21 |
| QEVDTIELTRQVKEKLAKNGICQRIFGEKVLGLSQGSVSDMLSRPKPWSKLTQKFREPFIRMQLWLNG | 0.042 ± 0.096 |
| QEVDTIELTRQVKEKLAKNGICQRIFGEKVLGLSQGSVSDMLSRPKPWSKLTQKTREPFIRMQLWLNG | -0.162 ± 0.063 |
| QEVDTIELTRQVKEKLAKNGICQRIFGEKVLGLSQGSVSDMLSRPWPWSKLTQKGREPFIRMQLWLNG | -0.285 ± 0.084 |
| QEVDTIELTRQVKEKLAKNGICQRIFGEKVLGLSQGSVSDMLSRPTPWSKLTQKGREPFIRMQLWLNG | -0.205 ± 0.074 |
| QEVDTIELTRQVKEKLAKNGICQRIFGEKVLGLSQGSVSDYLSRPKPWSKLTQKGREPFIRMQLWLNG | -0.011 ± 0.096 |
